Measurements as given in PMC9482650, “Quantitative fragmentomics allow affinity mapping of interactomes” (Nature Communications, 2022).

T1: APBA2_2, Q99767
T1 sequence (Q99767 654-744, limits assumed, looked up): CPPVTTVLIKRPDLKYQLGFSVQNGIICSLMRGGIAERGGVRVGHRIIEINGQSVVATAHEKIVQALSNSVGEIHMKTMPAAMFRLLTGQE

T2: GRIP1_3, Q9Y3R0
T2 sequence (Q9Y3R0 247-346, limits assumed, looked up): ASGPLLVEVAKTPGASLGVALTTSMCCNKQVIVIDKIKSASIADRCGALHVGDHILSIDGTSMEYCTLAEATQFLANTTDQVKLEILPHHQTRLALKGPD

T3: GRIP1_5, Q9Y3R0
T3 sequence (Q9Y3R0 568-668, limits assumed, looked up): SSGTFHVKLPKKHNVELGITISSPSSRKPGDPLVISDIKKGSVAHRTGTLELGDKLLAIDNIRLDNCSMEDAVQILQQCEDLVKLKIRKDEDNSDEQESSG

T4: PDZRN3_1, Q9UPQ7
T4 sequence (Q9UPQ7 244-349, limits assumed, looked up): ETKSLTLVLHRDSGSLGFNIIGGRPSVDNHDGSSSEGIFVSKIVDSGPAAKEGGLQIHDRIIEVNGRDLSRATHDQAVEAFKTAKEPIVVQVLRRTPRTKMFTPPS

T5: RADIL, Q96JH8
T5 sequence (Q96JH8 971-1071, limits assumed, looked up): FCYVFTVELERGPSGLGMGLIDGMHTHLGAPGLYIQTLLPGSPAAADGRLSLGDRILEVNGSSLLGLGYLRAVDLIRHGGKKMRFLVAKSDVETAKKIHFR

T6: SNTB1, Q13884
T6 sequence (Q13884 107-205, limits assumed, looked up): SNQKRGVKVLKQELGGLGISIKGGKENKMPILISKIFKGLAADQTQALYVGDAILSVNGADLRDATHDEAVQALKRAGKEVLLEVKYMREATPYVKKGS

T7: TX1BP3, O14907
T7 sequence (O14907 10-122, limits assumed, looked up): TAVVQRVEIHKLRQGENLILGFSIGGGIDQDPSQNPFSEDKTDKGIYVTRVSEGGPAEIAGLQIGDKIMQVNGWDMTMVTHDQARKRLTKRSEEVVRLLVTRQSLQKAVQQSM

B1: RNF146, Q9NTX7 (peptide)
chain: PDGQCTVTEV
B2: RASL11B, Q9BPW5 (peptide)
chain: SAKVRTVTSV
B3: MYOZ2, Q9NPC6 (peptide)
chain: DTTVPESEDL

What follows are binders tested against T1, APBA2_2, Q99767 (assay: holdup assay). Details: plain residues with an end cap or a label only (N-terminal biotin on a linker: ado-ado).
Set-up: key: below the threshold = too weak to quantify, mostly under pKd 3.1 to 4

Row | Binder | pKd
1 | B1 | below the threshold
2 | B2 | below the threshold
3 | B3 | below the threshold

The binders below were run against CASK, O14936 (assay: holdup assay). Details: plain residues with an end cap or a label only (N-terminal biotin on a linker: ado-ado).
Chain of CASK, O14936 (O14936 487-570): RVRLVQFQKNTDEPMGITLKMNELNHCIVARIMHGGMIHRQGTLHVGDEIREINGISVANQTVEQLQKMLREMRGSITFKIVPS
Set-up: key: below the threshold = too weak to quantify, mostly under pKd 3.1 to 4

Row | Binder | pKd
4 | B1 | below the threshold
5 | B2 | below the threshold
6 | B3 | below the threshold

These binders were tested against DLG4_2, P78352 (assay: holdup assay). Details: plain residues with an end cap or a label only (N-terminal biotin on a linker: ado-ado).
Chain of DLG4_2, P78352 (P78352 155-259): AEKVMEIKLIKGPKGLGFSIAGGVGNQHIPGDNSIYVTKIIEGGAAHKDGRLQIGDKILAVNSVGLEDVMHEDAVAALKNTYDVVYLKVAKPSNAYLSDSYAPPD
Set-up: key: below the threshold = too weak to quantify, mostly under pKd 3.1 to 4

Row | Binder | pKd
7 | B1 | 5.07
8 | B2 | 5.08
9 | B3 | below the threshold

The binders below were run against DLG4_3, P78352 (assay: holdup assay). Details: plain residues with an end cap or a label only (N-terminal biotin on a linker: ado-ado).
Chain of DLG4_3, P78352 (P78352 306-403): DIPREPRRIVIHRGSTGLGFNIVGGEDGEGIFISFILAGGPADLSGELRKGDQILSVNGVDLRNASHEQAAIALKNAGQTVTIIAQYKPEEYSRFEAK
Set-up: key: below the threshold = too weak to quantify, mostly under pKd 3.1 to 4

Row | Binder | pKd
10 | B1 | 3.5
11 | B2 | 4.93
12 | B3 | below the threshold

Each binder was assayed against FRMPD3, Q5JV73 (assay: holdup assay). Details: plain residues with an end cap or a label only (N-terminal biotin on a linker: ado-ado).
Chain of FRMPD3, Q5JV73 (Q5JV73 12-100): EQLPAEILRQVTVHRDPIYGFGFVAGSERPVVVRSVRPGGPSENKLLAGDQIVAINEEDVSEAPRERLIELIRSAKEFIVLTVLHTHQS
Set-up: key: below the threshold = too weak to quantify, mostly under pKd 3.1 to 4

Row | Binder | pKd
13 | B1 | below the threshold
14 | B2 | below the threshold
15 | B3 | below the threshold

The binders below were run against FRMPD4, Q14CM0 (assay: holdup assay). Details: plain residues with an end cap or a label only (N-terminal biotin on a linker: ado-ado).
Chain of FRMPD4, Q14CM0 (Q14CM0 67-160): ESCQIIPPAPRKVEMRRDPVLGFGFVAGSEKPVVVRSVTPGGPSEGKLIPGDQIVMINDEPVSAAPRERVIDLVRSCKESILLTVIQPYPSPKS
Set-up: key: below the threshold = too weak to quantify, mostly under pKd 3.1 to 4

Row | Binder | pKd
16 | B1 | below the threshold
17 | B2 | below the threshold
18 | B3 | 3.66

The binders below were run against GORASP1, Q9BQQ3 (assay: holdup assay). Details: plain residues with an end cap or a label only (N-terminal biotin on a linker: ado-ado).
Chain of GORASP1, Q9BQQ3 (Q9BQQ3 1-208): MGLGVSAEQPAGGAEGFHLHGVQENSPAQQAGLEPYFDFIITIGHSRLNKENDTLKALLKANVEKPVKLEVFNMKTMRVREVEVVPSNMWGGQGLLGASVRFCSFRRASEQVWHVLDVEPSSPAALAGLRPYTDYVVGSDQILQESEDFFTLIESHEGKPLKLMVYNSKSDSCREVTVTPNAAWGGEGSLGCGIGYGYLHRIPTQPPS
Set-up: key: below the threshold = too weak to quantify, mostly under pKd 3.1 to 4

Row | Binder | pKd
19 | B1 | below the threshold
20 | B2 | 3.76
21 | B3 | below the threshold

Each binder was assayed against T2, GRIP1_3, Q9Y3R0 (assay: holdup assay). Details: plain residues with an end cap or a label only (N-terminal biotin on a linker: ado-ado).
Set-up: key: below the threshold = too weak to quantify, mostly under pKd 3.1 to 4

Row | Binder | pKd
22 | B1 | below the threshold
23 | B2 | below the threshold
24 | B3 | below the threshold

These binders were tested against T3, GRIP1_5, Q9Y3R0 (assay: holdup assay). Details: plain residues with an end cap or a label only (N-terminal biotin on a linker: ado-ado).
Set-up: key: below the threshold = too weak to quantify, mostly under pKd 3.1 to 4

Row | Binder | pKd
25 | B1 | below the threshold
26 | B2 | below the threshold
27 | B3 | below the threshold

Each binder was assayed against GRIP2_4, Q9C0E4 (assay: holdup assay). Details: plain residues with an end cap or a label only (N-terminal biotin on a linker: ado-ado).
Chain of GRIP2_4, Q9C0E4 (Q9C0E4 446-548): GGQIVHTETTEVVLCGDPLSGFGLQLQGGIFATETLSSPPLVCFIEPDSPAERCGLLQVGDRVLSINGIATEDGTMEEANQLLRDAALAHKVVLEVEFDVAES
Set-up: key: below the threshold = too weak to quantify, mostly under pKd 3.1 to 4

Row | Binder | pKd
28 | B1 | below the threshold
29 | B2 | below the threshold
30 | B3 | below the threshold

The binders below were run against GRIP2_7, Q9C0E4 (assay: holdup assay). Details: plain residues with an end cap or a label only (N-terminal biotin on a linker: ado-ado).
Chain of GRIP2_7, Q9C0E4 (Q9C0E4 934-1023): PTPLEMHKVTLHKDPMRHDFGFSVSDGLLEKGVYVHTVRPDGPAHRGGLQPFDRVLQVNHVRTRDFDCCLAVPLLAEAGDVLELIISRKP
Set-up: key: below the threshold = too weak to quantify, mostly under pKd 3.1 to 4

Row | Binder | pKd
31 | B1 | 3.56
32 | B2 | below the threshold
33 | B3 | below the threshold

What follows are binders tested against IL16_4, Q14005 (assay: holdup assay). Details: plain residues with an end cap or a label only (N-terminal biotin on a linker: ado-ado).
Chain of IL16_4, Q14005 (Q14005 1229-1329): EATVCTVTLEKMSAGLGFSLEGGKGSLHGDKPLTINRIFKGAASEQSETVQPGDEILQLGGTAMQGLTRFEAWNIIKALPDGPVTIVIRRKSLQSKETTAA
Set-up: key: below the threshold = too weak to quantify, mostly under pKd 3.1 to 4

Row | Binder | pKd
34 | B1 | below the threshold
35 | B2 | below the threshold
36 | B3 | below the threshold

The binders below were run against Inadl_1, Q8NI35 (assay: holdup assay). Details: plain residues with an end cap or a label only (N-terminal biotin on a linker: ado-ado).
Chain of Inadl_1, Q8NI35 (Q8NI35 113-229): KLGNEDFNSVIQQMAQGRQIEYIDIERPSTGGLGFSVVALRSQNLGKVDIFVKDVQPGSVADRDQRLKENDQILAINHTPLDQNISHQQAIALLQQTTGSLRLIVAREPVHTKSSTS
Set-up: key: below the threshold = too weak to quantify, mostly under pKd 3.1 to 4

Row | Binder | pKd
37 | B1 | below the threshold
38 | B2 | below the threshold
39 | B3 | below the threshold

What follows are binders tested against Inadl_6, Q8NI35 (assay: holdup assay). Details: plain residues with an end cap or a label only (N-terminal biotin on a linker: ado-ado).
Chain of Inadl_6, Q8NI35 (Q8NI35 1058-1167): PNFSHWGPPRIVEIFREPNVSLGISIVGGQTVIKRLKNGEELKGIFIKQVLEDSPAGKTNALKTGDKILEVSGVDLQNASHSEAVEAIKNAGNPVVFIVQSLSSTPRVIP
Set-up: key: below the threshold = too weak to quantify, mostly under pKd 3.1 to 4

Row | Binder | pKd
40 | B1 | 3.95
41 | B2 | below the threshold
42 | B3 | below the threshold

Each binder was assayed against LNX1_1, Q8TBB1 (assay: holdup assay). Details: plain residues with an end cap or a label only (N-terminal biotin on a linker: ado-ado).
Chain of LNX1_1, Q8TBB1 (Q8TBB1 261-371): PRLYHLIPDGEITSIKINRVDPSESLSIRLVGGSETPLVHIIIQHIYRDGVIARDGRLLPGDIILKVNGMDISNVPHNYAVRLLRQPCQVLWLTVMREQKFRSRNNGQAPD
Set-up: key: below the threshold = too weak to quantify, mostly under pKd 3.1 to 4

Row | Binder | pKd
43 | B1 | 4.12
44 | B2 | 4.04
45 | B3 | below the threshold

The binders below were run against LNX1_2, Q8TBB1 (assay: holdup assay). Details: plain residues with an end cap or a label only (N-terminal biotin on a linker: ado-ado).
Chain of LNX1_2, Q8TBB1 (Q8TBB1 371-470): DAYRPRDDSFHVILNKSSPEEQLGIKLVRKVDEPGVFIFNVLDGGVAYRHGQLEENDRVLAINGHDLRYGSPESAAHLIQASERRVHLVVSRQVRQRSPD
Set-up: key: below the threshold = too weak to quantify, mostly under pKd 3.1 to 4

Row | Binder | pKd
46 | B1 | 3.99
47 | B2 | 3.92
48 | B3 | below the threshold

These binders were tested against LNX1_3, Q8TBB1 (assay: holdup assay). Details: plain residues with an end cap or a label only (N-terminal biotin on a linker: ado-ado).
Chain of LNX1_3, Q8TBB1 (Q8TBB1 500-596): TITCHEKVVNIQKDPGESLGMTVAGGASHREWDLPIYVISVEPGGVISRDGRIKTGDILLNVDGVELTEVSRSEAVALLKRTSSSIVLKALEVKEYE
Set-up: key: below the threshold = too weak to quantify, mostly under pKd 3.1 to 4

Row | Binder | pKd
49 | B1 | below the threshold
50 | B2 | below the threshold
51 | B3 | below the threshold

Each binder was assayed against MAGI1_1, Q96QZ7 (assay: holdup assay). Details: plain residues with an end cap or a label only (N-terminal biotin on a linker: ado-ado).
Chain of MAGI1_1, Q96QZ7 (Q96QZ7 1-106): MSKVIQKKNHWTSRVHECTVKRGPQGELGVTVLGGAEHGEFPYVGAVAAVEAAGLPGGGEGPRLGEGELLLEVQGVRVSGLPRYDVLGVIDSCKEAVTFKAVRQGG
Set-up: key: below the threshold = too weak to quantify, mostly under pKd 3.1 to 4

Row | Binder | pKd
52 | B1 | below the threshold
53 | B2 | 3.52
54 | B3 | below the threshold

Each binder was assayed against MAGI1_2, Q96QZ7 (assay: holdup assay). Details: plain residues with an end cap or a label only (N-terminal biotin on a linker: ado-ado).
Chain of MAGI1_2, Q96QZ7 (Q96QZ7 456-580): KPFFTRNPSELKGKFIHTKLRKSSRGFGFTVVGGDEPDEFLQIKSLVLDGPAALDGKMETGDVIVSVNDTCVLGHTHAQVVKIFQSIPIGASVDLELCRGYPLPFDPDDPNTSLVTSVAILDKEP
Set-up: key: below the threshold = too weak to quantify, mostly under pKd 3.1 to 4

Row | Binder | pKd
55 | B1 | 3.53
56 | B2 | 5.51
57 | B3 | below the threshold

What follows are binders tested against MAGI2_5, Q86UL8 (assay: holdup assay). Details: plain residues with an end cap or a label only (N-terminal biotin on a linker: ado-ado).
Chain of MAGI2_5, Q86UL8 (Q86UL8 915-1017): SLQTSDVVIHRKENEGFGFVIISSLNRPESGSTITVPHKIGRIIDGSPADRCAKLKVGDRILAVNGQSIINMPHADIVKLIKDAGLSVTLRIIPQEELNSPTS
Set-up: key: below the threshold = too weak to quantify, mostly under pKd 3.1 to 4

Row | Binder | pKd
58 | B1 | 4.47
59 | B2 | below the threshold
60 | B3 | below the threshold

Each binder was assayed against MAGI2_6, Q86UL8 (assay: holdup assay). Details: plain residues with an end cap or a label only (N-terminal biotin on a linker: ado-ado).
Chain of MAGI2_6, Q86UL8 (Q86UL8 1141-1229): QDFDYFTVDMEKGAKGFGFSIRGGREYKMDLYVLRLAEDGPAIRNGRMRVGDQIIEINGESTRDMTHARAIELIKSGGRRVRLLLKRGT
Set-up: key: below the threshold = too weak to quantify, mostly under pKd 3.1 to 4

Row | Binder | pKd
61 | B1 | 4.71
62 | B2 | 3.85
63 | B3 | 4.11

These binders were tested against T4, PDZRN3_1, Q9UPQ7 (assay: holdup assay). Details: plain residues with an end cap or a label only (N-terminal biotin on a linker: ado-ado).
Set-up: key: below the threshold = too weak to quantify, mostly under pKd 3.1 to 4

Row | Binder | pKd
64 | B1 | 3.5
65 | B2 | 3.71
66 | B3 | below the threshold

What follows are binders tested against PDZRN4_1, Q6ZMN7 (assay: holdup assay). Details: plain residues with an end cap or a label only (N-terminal biotin on a linker: ado-ado).
Chain of PDZRN4_1, Q6ZMN7 (Q6ZMN7 213-318): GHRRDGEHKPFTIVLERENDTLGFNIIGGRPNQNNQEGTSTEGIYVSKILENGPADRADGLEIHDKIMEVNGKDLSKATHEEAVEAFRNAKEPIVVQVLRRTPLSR
Set-up: key: below the threshold = too weak to quantify, mostly under pKd 3.1 to 4

Row | Binder | pKd
67 | B1 | below the threshold
68 | B2 | below the threshold
69 | B3 | below the threshold

Each binder was assayed against PICK1, Q9NRD5 (assay: holdup assay). Details: plain residues with an end cap or a label only (N-terminal biotin on a linker: ado-ado).
Chain of PICK1, Q9NRD5 (Q9NRD5 17-115): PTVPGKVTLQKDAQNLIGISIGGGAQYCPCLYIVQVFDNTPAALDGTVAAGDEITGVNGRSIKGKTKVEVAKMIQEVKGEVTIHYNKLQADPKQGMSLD
Set-up: key: below the threshold = too weak to quantify, mostly under pKd 3.1 to 4

Row | Binder | pKd
70 | B1 | below the threshold
71 | B2 | below the threshold
72 | B3 | below the threshold

These binders were tested against T5, RADIL, Q96JH8 (assay: holdup assay). Details: plain residues with an end cap or a label only (N-terminal biotin on a linker: ado-ado).
Set-up: key: below the threshold = too weak to quantify, mostly under pKd 3.1 to 4

Row | Binder | pKd
73 | B1 | 4.62
74 | B2 | 3.94
75 | B3 | below the threshold

Each binder was assayed against SCRIB_2, Q14160 (assay: holdup assay). Details: plain residues with an end cap or a label only (N-terminal biotin on a linker: ado-ado).
Chain of SCRIB_2, Q14160 (Q14160 857-960): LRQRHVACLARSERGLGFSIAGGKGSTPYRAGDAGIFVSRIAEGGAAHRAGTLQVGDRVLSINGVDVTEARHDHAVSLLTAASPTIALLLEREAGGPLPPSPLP
Set-up: key: below the threshold = too weak to quantify, mostly under pKd 3.1 to 4

Row | Binder | pKd
76 | B1 | 4.28
77 | B2 | below the threshold
78 | B3 | below the threshold

What follows are binders tested against SCRIB_3, Q14160 (assay: holdup assay). Details: plain residues with an end cap or a label only (N-terminal biotin on a linker: ado-ado).
Chain of SCRIB_3, Q14160 (Q14160 999-1103): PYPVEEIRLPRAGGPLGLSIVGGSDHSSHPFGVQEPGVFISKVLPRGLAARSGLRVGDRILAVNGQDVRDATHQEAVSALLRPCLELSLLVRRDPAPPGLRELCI
Set-up: key: below the threshold = too weak to quantify, mostly under pKd 3.1 to 4

Row | Binder | pKd
79 | B1 | 4.72
80 | B2 | 4.33
81 | B3 | below the threshold

The binders below were run against T6, SNTB1, Q13884 (assay: holdup assay). Details: plain residues with an end cap or a label only (N-terminal biotin on a linker: ado-ado).
Set-up: key: below the threshold = too weak to quantify, mostly under pKd 3.1 to 4

Row | Binder | pKd
82 | B1 | 4.37
83 | B2 | 3.64
84 | B3 | below the threshold

These binders were tested against SNX27, Q96L92 (assay: holdup assay). Details: plain residues with an end cap or a label only (N-terminal biotin on a linker: ado-ado).
Set-up: key: below the threshold = too weak to quantify, mostly under pKd 3.1 to 4

Row | Binder | pKd
85 | B1 | 5.19
86 | B2 | 4.73
87 | B3 | 3.65

These binders were tested against T7, TX1BP3, O14907 (assay: holdup assay). Details: plain residues with an end cap or a label only (N-terminal biotin on a linker: ado-ado).
Set-up: key: below the threshold = too weak to quantify, mostly under pKd 3.1 to 4

Row | Binder | pKd
88 | B1 | 4.78
89 | B2 | 4.53
90 | B3 | below the threshold
